{"source": "paper PMC3178605", "about": "“No Interaction of Barrier-to-Autointegration Factor (BAF) with HIV-1 MA, Cone-Rod Homeobox (Crx) or MAN1-C in Absence of DNA” (PLoS ONE, 2011)", "key": {"[1]": {"molecular_target": "T1, Barrier-to-autointegration factor (BAF), human, unlabeled (human, UniProt O75531 1-89)", "T1 construct": "Barrier-to-autointegration factor (BAF/BANF1), human; Used unlabeled in the NMR experiments; also called BANF1; BAF2 (the dimer); source: cloned and purified as described [12]", "T1 sequence (looked up)": "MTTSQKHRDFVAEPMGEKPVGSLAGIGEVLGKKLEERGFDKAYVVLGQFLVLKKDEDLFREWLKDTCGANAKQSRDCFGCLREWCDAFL", "experiment": "NMR titration; 1H-15N HSQC of 50 µM 15N-labeled LEM domain without and with 200 µM unlabeled BAF2; 25 mM potassium phosphate pH 6.5, 200 mM NaCl, 2 mM 2-mercaptoethanol, 27°C", "details": "both partners purified"}, "MAN1-C": {"molecular_target": "T2, MAN1-C (UniProt Q9Y2U8 650-911)", "T2 sequence": "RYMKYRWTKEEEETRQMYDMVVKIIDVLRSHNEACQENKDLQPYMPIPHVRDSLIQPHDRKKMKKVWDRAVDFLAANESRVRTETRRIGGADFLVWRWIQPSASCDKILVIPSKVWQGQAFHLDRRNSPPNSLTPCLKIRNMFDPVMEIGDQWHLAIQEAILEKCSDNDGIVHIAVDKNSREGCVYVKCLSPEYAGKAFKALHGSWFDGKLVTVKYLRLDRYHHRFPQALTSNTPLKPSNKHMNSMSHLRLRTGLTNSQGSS", "experiment": "NMR (1H-15N HSQC); 150 mM NaCl?; NMR: 25 mM potassium phosphate pH 6.5, 2 mM 2-mercaptoethanol, 95% H2O/5% D2O, 200 mM NaCl (Crx samples) or 150 mM NaCl (MAN1-C samples); salt for MA and temperature not given. The pull-down used undefined sonicated salmon sperm DNA (not listed)", "details": "protein: recombinant; tags: His6-thioredoxin removed by thrombin; blunt"}}, "note": "Where no end group is shown, it is not given here.", "data": [{"binder": "MDNYADLSDTELTTLLRRYNIPHGPVVGSTRRLYEKKIFEYETQRRR (domain or fragment, UniProt P50402 1-47, looked up, also: 15N-labeled, Emerin, LEM domain, residues 1-47; Uniformly 15N-labeled for NMR; also called Emerin LEM domain; source: cloned and purified as described [12])", "note": "[LEM domain of Emerin (residues 1-47), 15N-labeled]", "values": [{"measurement": "binding result", "setting": "[1]", "value": "binds"}]}, {"binder": "16 mer DNA duplex (dsDNA) DNA 1: CCAGCACAAACACCTG DNA 2: CAGGTGTTTGTGCTGG", "values": [{"measurement": "binding result", "setting": "MAN1-C", "value": "binds"}]}, {"binder": "LEM domain of MAN1 (residues 1-52), 15N-labeled (domain or fragment, UniProt Q9Y2U8 1-52, looked up, also: 15N-labeled, MAN1 (inner nuclear membrane protein), LEM domain, residues 1-52; Uniformly 15N-labeled for NMR; also called MAN1 LEM domain; MAN-1 LEM domain; source: cloned and purified as described [12]) MAAAAASAPQQLSDEELFSQLRRYGLSPGPVTESTRPVYLKKLKKLREEEQQ", "values": [{"measurement": "binding result", "setting": "[1]", "value": "binds"}]}]}
